From paper PMC11510292, “Heterobivalent Dual-Target Peptide for Integrin-αvβ3 and Neuropeptide Y Receptors on Breast Tumor” (Pharmaceuticals, 2024)
Read-outs that look alike come from different tables or passages of the source.

What was measured:
[1] = Ex vivo biodistribution and blood clearance in healthy Balb/c mice; conditions: mouse, 37 MBq, total radioactivity; for tissue uptake at 4 h: 4 h after IV injection; for tissue uptake at 6 h: 6 h after IV injection; for tissue uptake at 5 min: 5 min after IV injection; for tissue uptake at 0.5 h: 30 min after IV injection; for tissue uptake at 1 h: 1 h after IV injection; for tissue uptake at 2 h: 2 h after IV injection
Procedure: The ex vivo biodistribution analysis performed with healthy Balb/c mice is presented in Figure 2 and Figure 3, and Table 1. Values are expressed as a percentage of injected activity per gram (%IA/g) of tissue and per milliliter (%IA/mL) of blood.
(§1) […] Animals were deeply anesthetized and euthanized at the corresponding biodistribution time point. Blood, brain, spleen, heart, stomach, liver, lungs, kidneys, pancreas, muscle, bone, small intestine, and large intestine were collected and weighed. The radioactivity of each organ/tissue was then determined using the above-mentioned automatic gamma counter. The radioactivity was evaluated as the percentage of injected activity per gram of organ/tissue (%IA/g), using the same injected dose activity as a standard. Receptor-blocking studies in tumor models were also carried out by co-administration of 100 μg of cold-conjugated peptide along with radiopeptide.

[2] = Biodistribution in SCID mice bearing MCF-7 xenografts; type: in vivo; conditions: female, mouse, total radioactivity; for tissue uptake at 1 h / tissue uptake per volume at 1 h: SCID, MCF-7 model, 60 min p.i., 0.1 mL/18.5 MBq IV; for tissue uptake per volume at 1 h: whole blood
Procedure: To evaluate the uptake of the radiolabeled peptide by breast tumors, additional biodistribution studies were performed in SCID mice bearing MCF-7 and MDA-MB-231 xenografts (Table 2). […] The tumor uptakes of the radiolabeled conjugate were 9.30 ± 3.25% for MCF-7 and 4.93 ± 1.01% for MDA-MB-231 (Figure 5). The tumor-to-muscle ratios were 5.65 ± 0.94 for the MCF-7 model and 7.78 ± 3.20 for the MDA-MB-231 model (Figure 6).
The animals used in this experiment were provided by the Nuclear and Energy Research Institute (IPEN/CNEN-SP) vivarium. Every effort was made to minimize animal suffering per International Ethical Guidelines. The experimental protocols used in this study were approved by the Scientific Ethics Committee of the IPEN/CNEN-SP. Adult female SCID mice were maintained under controlled environmental conditions (12 h light-dark cycle; constant temperature 21 ± 2 °C), with free access to water and food. Suspensions of cells (5 × 10^6 in 0.1 mL) were subcutaneously injected into the upper back regions of the mice.
as §1

[3] = lung, mean ± SD n = 5, read-out: Lung uptake
[4] = muscle, mean ± SD n = 5, read-out: Muscle uptake
[5] = pancreas, mean ± SD n = 5, read-out: Pancreas uptake
[6] = spleen, mean ± SD n = 5, read-out: Spleen uptake
[7] = stomach, mean ± SD n = 5, read-out: Stomach uptake

In the case of CCCC[C@H](NC(=O)[C@H](CCCNC(=N)N)NC(=O)[C@H](Cc1c[nH]c2ccccc12)NC(=O)[C@H](CSCC(=O)NCCCC[C@@H]1NC(=O)[C@@H](Cc2ccccc2)NC(=O)[C@H](CC(=O)O)NC(=O)CNC(=O)[C@H](CCCNC(=N)N)NC1=O)NC(=O)[C@@H]1CCCN1C(=O)[C@H](CC(N)=O)NC(=O)[C@@H](NC(=O)COCCOCCNC(=O)c1ccc(NN)nc1)[C@@H](C)CC)C(=O)N[C@@H](CCCNC(=N)N)C(=O)N[C@@H](Cc1ccc(O)cc1)C(N)=O [[^99mTc]HYNIC-cRGDfk-NPY, metal not drawn], the tissue uptake at 4 h [1, 3] is reported as 0.63 ± 0.17 %ID/g, the tissue uptake at 6 h [1, 3] is reported as 1.65 ± 2.02 %ID/g and the tissue uptake at 5 min [1, 4] is reported as 2.16 ± 0.62 %ID/g. It also gave a tissue uptake at 0.5 h [1, 4] of 1.5 ± 0.41 %ID/g, a tissue uptake at 1 h [1, 4] of 0.68 ± 0.33 %ID/g and a tissue uptake at 2 h [1, 4] of 0.39 ± 0.09 %ID/g. For the same compound, the tissue uptake at 4 h [1, 4] was 0.22 ± 0.07 %ID/g, the tissue uptake at 6 h [1, 4] was 0.21 ± 0.03 %ID/g and the tissue uptake at 5 min [1, 5] was 3.39 ± 0.92 %ID/g. It also gave a tissue uptake at 0.5 h [1, 5] of 2.52 ± 0.89 %ID/g, a tissue uptake at 1 h [1, 5] of 1.17 ± 0.45 %ID/g and a tissue uptake at 2 h [1, 5] of 0.53 ± 0.1 %ID/g. The tissue uptake at 4 h [1, 5] was 0.35 ± 0.12 %ID/g, the tissue uptake at 6 h [1, 5] was 0.34 ± 0.11 %ID/g and the tissue uptake at 5 min [1, 6] was 6.06 ± 2.9 %ID/g. The tissue uptake at 0.5 h [1, 6] was 6.14 ± 2.29 %ID/g, the tissue uptake at 1 h [1, 6] was 3.41 ± 1.17 %ID/g and the tissue uptake at 2 h [1, 6] was 2.22 ± 0.37 %ID/g. For the same compound, the tissue uptake at 4 h [1, 6] was 1.69 ± 0.34 %ID/g, the tissue uptake at 6 h [1, 6] was 1.98 ± 0.63 %ID/g and the tissue uptake at 5 min [1, 7] was 8.05 ± 2.56 %ID/g. It also gave a tissue uptake at 0.5 h [1, 7] of 7.17 ± 1.38 %ID/g, a tissue uptake at 1 h [1, 7] of 3.97 ± 0.78 %ID/g and a tissue uptake at 2 h [1, 7] of 2.62 ± 0.68 %ID/g. It also gave a tissue uptake at 4 h [1, 7] of 1.81 ± 0.5 %ID/g, a tissue uptake at 6 h [1, 7] of 1.79 ± 0.58 %ID/g and a tissue uptake at 1 h ([2]; bone, Block with excess cold peptide, n = 3, read-out: Bone uptake) of 1.08 ± 0.77 %ID/g. It also gave a tissue uptake at 1 h ([2]; bone, Non-Block, n = 5, read-out: Bone uptake) of 1.4 ± 0.72 %ID/g, a tissue uptake at 1 h ([2]; brain, Block with excess cold peptide, n = 3, read-out: Brain uptake) of 0.08 ± 0.01 %ID/g and a tissue uptake at 1 h ([2]; brain, Non-Block, n = 5, read-out: Brain uptake) of 0.16 ± 0.06 %ID/g. The tissue uptake at 1 h ([2]; heart, Block with excess cold peptide, n = 3, read-out: Heart uptake) was 0.65 ± 0.24 %ID/g, the tissue uptake at 1 h ([2]; heart, Non-Block, n = 5, read-out: Heart uptake) was 1.53 ± 0.45 %ID/g and the tissue uptake at 1 h ([2]; kidneys, Block with excess cold peptide, n = 3, read-out: Kidneys uptake) was 20.8 ± 7.02 %ID/g. The tissue uptake at 1 h ([2]; kidneys, Non-Block, n = 5, read-out: Kidneys uptake) was 24.6 ± 8.6 %ID/g, the tissue uptake at 1 h ([2]; large intestine, Block with excess cold peptide, n = 3, read-out: Large Intestine uptake) was 3.91 ± 2.11 %ID/g and the tissue uptake at 1 h ([2]; large intestine, Non-Block, n = 5, read-out: Large Intestine uptake) was 6.41 ± 1.63 %ID/g. It also gave a tissue uptake at 1 h ([2]; liver, Block with excess cold peptide, n = 3, read-out: Liver uptake) of 1.84 ± 0.13 %ID/g, a tissue uptake at 1 h ([2]; liver, Non-Block, n = 5, read-out: Liver uptake) of 3.61 ± 0.73 %ID/g and a tissue uptake at 1 h ([2]; lungs, Block with excess cold peptide, n = 3, read-out: Lungs uptake) of 1.59 ± 0.34 %ID/g. It also gave a tissue uptake at 1 h ([2]; lungs, Non-Block, n = 5, read-out: Lungs uptake) of 3.58 ± 1.22 %ID/g, a tissue uptake at 1 h ([2]; muscle, Block with excess cold peptide, n = 3, read-out: Muscle uptake) of 0.59 ± 0.37 %ID/g and a tissue uptake at 1 h ([2]; muscle, Non-Block, n = 5, read-out: Muscle uptake) of 1.56 ± 1.41 %ID/g. The tissue uptake at 1 h ([2]; pancreas, Block with excess cold peptide, n = 3, read-out: Pancreas uptake) was 1.12 ± 0.42 %ID/g, the tissue uptake at 1 h ([2]; pancreas, Non-Block, n = 5, read-out: Pancreas uptake) was 1.62 ± 0.3 %ID/g and the tissue uptake at 1 h ([2]; small intestine, Block with excess cold peptide, n = 3, read-out: Small Intestine uptake) was 3.77 ± 0.95 %ID/g. The tissue uptake at 1 h ([2]; small intestine, Non-Block, n = 5, read-out: Small Intestine uptake) was 10.3 ± 2.18 %ID/g, the tissue uptake at 1 h ([2]; spleen, Block with excess cold peptide, n = 3, read-out: Spleen uptake) was 2.53 ± 0.74 %ID/g and the tissue uptake at 1 h ([2]; spleen, Non-Block, n = 5, read-out: Spleen uptake) was 5.33 ± 1.88 %ID/g. It also gave a tissue uptake at 1 h ([2]; stomach, Block with excess cold peptide, n = 3, read-out: Stomach uptake) of 2.98 ± 0.57 %ID/g, a tissue uptake at 1 h ([2]; stomach, Non-Block, n = 5, read-out: Stomach uptake) of 6.04 ± 1.15 %ID/g and a tissue uptake at 1 h ([2]; tumor, Block with excess cold peptide, n = 3, p > 0.05 vs non-block, read-out: Tumor uptake) of 4.41 ± 2.13 %ID/g. It also gave a tissue uptake at 1 h ([2]; tumor, Non-Block, n = 5, read-out: Tumor uptake) of 9.3 ± 3.25 %ID/g, a tissue uptake per volume at 1 h ([2]; Block with excess cold peptide, n = 3) of 0.92 ± 0.07 %ID/mL and a tissue uptake per volume at 1 h ([2]; Non-Block, n = 5) of 1.66 ± 0.89 %ID/mL. For the same compound, the tissue to tissue ratio at 1 h ([2]; tumor and muscle, 37 MBq, MCF-7 tumor-bearing SCID mice, 1 h after IV injection, n = 5) was 5.65 ± 0.94.
